Experimental data as given in patent US20070032419A1 (ONCOSCIENCE, published 2007).
Residue numbers refer to the chain shown, from its start.

Legend:
[1] = target: T1, tTF-GALNGRSHAG fusion polypeptide
T1 chain: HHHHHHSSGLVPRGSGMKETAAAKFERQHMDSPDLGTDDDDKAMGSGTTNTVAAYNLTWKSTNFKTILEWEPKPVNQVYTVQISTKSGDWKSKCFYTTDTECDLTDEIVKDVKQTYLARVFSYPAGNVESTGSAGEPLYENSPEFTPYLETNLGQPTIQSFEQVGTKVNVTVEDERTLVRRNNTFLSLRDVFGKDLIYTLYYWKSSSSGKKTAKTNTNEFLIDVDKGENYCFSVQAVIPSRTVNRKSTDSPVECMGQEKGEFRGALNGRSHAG

[2] = target: T2, tTF-GCNGRCG fusion polypeptide
T2 chain: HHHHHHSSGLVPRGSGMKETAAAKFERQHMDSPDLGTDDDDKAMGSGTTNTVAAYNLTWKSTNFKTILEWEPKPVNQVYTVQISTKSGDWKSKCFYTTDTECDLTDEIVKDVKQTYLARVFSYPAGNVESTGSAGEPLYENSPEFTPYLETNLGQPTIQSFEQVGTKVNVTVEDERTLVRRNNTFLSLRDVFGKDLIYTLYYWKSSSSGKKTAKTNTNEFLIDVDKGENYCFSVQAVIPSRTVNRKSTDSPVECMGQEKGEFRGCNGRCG

[3] = target: T3, tTF-GCNGRCVSGCAGRC fusion polypeptide
T3 chain: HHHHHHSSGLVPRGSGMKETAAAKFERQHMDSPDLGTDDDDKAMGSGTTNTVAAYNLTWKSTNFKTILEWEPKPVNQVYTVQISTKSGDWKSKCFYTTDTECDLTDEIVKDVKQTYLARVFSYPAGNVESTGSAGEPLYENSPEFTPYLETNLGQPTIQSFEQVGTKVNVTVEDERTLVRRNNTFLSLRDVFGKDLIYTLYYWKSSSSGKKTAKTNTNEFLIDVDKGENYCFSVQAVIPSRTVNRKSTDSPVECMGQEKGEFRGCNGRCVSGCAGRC

[4] = target: T4, tTF-GCVLNGRMEC fusion polypeptide
T4 chain: T1 chain with A265C, L266V, N267L, G268N, R269G, S270R, H271M, A272E, G273C

[5] = target: T5, tTF-GNGRAHA fusion polypeptide with N-terminal affinity tag
T5 chain: T2 chain with C265N, N266G, G267R, R268A, C269H, G270A

[6] = target: T6, tTF-GRGDSP fusion polypeptide with N-terminal affinity tag
T6 chain: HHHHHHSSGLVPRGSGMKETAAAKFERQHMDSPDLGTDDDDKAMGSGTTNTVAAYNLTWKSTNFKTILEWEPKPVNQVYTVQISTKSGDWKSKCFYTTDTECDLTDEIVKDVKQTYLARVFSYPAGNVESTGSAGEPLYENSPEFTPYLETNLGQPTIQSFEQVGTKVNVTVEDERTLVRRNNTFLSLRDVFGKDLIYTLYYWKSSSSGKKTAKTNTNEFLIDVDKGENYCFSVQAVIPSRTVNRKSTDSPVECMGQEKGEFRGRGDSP

[7] = target: the fusion polypeptides (tTF fusion polypeptides)
[8] = target: T7, truncated human tissue factor tTF1-218
T7 chain: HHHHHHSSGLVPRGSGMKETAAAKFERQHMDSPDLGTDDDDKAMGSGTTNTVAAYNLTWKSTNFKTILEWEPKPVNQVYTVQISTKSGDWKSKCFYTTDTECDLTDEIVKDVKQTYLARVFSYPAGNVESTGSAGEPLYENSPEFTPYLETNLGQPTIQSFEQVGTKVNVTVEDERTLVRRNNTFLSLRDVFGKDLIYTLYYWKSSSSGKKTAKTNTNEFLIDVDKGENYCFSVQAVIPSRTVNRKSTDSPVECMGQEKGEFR

[9] = target: T8, integrin αvβ3 on cultivated human endothelial cells (human, UniProt P06756 31-1048; P05106 27-788); assay: FACS, biotinylated protein (0.1 µM) on human endothelial cells in suspension, streptavidin-phycoerythrin detection; reference tTF
T8 construct: whole, on cells; The cells express αvβ3 naturally; also called αvβ3 on endothelial cells
T8 sequence (P06756 31-1048, chain 1 of 2): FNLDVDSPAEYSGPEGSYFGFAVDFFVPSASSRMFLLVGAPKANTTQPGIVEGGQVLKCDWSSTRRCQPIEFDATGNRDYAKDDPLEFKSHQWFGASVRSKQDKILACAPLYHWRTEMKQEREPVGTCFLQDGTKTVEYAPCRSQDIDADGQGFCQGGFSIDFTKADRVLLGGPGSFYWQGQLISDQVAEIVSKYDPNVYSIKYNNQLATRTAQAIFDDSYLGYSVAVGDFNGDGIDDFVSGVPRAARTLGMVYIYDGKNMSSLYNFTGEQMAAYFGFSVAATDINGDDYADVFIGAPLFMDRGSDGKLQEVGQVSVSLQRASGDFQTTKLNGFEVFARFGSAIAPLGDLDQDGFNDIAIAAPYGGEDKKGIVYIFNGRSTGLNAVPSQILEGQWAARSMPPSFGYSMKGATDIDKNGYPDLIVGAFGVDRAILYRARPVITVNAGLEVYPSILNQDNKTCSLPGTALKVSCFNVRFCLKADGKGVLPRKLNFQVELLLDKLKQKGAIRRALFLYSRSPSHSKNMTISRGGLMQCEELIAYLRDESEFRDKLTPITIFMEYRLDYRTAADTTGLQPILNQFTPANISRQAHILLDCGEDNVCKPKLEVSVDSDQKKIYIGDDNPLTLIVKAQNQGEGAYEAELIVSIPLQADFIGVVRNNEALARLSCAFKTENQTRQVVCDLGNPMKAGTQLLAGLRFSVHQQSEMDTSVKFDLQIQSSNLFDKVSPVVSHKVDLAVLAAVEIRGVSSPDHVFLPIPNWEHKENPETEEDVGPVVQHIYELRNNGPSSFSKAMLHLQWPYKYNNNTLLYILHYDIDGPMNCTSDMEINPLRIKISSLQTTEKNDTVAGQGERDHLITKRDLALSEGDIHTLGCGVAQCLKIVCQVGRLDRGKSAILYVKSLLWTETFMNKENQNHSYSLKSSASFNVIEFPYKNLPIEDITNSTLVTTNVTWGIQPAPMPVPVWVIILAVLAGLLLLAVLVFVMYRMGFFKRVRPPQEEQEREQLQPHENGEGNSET
T8 sequence (P05106 27-788, chain 2 of 2): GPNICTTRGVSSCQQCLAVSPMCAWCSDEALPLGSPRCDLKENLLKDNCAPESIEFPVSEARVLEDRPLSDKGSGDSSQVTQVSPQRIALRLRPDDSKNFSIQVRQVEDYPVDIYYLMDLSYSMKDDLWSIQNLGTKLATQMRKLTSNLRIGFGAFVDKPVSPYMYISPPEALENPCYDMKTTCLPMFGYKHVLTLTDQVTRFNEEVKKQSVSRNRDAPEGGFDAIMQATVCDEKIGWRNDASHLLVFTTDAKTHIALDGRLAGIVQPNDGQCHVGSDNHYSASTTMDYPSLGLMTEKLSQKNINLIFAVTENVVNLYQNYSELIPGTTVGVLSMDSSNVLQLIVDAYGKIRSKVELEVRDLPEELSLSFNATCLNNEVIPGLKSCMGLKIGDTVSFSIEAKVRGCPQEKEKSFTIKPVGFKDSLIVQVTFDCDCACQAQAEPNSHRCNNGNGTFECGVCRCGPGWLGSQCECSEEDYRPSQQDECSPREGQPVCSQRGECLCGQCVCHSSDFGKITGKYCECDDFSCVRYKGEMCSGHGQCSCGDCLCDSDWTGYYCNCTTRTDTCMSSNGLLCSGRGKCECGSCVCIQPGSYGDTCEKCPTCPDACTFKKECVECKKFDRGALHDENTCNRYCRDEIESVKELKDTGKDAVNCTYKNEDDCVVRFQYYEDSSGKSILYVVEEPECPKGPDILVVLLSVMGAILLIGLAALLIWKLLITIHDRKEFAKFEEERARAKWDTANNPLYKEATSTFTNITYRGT

B1: recombinant factor VIIa (Novo-Nordisk) (protein)
chain: ANAFLEELRPGSLERECKEEQCSFEEAREIFKDAERTKLFWISYSDGDQCASSPCQNGGSCKDQLQSYICFCLPAFEGRNCETHKDDQLICVNENGGCEQYCSDHTGTKRSCRCHEGYSLLADGVSCTPTVEYPCGKIPILEKRNASKPQGRIVGGKVCPKGECPWQVLLLVNGAQLCGGTLINTIWVVSAAHCFDKIKNWRNLIAVLGEHDLSEHDGDEQSRRVAQVIIPSTYVPGTTNHDIALLRLHQPVVLTDHVVPLCLPERTFSERTLAFVRFSLVSGWGQLLDRGATALELMVLNVPRLMTQDCLQQSRKVGDSPNITEYMFCAGYSDGSKDSCKGDSGGPHATHYRGTWYLTGIVSWGQGCATVGHFGVYTRVSQYIEWLQKLMRSEPRPGVLLRAPFP
proteolytic activation of FX via FVIIa in the presence of phospholipids (chromogenic FXa assay) [1]: both tTF and the tTF fusion polypeptides are functionally active under these conditions | proteolytic activation of FX via FVIIa in the presence of phospholipids (chromogenic FXa assay) [2]: both tTF and the tTF fusion polypeptides are functionally active under these conditions | proteolytic activation of FX via FVIIa in the presence of phospholipids (chromogenic FXa assay) [3]: both tTF and the tTF fusion polypeptides are functionally active under these conditions | proteolytic activation of FX via FVIIa in the presence of phospholipids (chromogenic FXa assay) [4]: both tTF and the tTF fusion polypeptides are functionally active under these conditions | proteolytic activation of FX via FVIIa in the presence of phospholipids (chromogenic FXa assay) [5]: both tTF and the tTF fusion polypeptides are functionally active under these conditions | proteolytic activation of FX via FVIIa in the presence of phospholipids (chromogenic FXa assay) [6]: both tTF and the tTF fusion polypeptides are functionally active under these conditions | Michaelis constant (Km) for activation of FX by FVIIa/tTF fusion protein [7]: in the range 0.12-1.2 nM | proteolytic activation of FX via FVIIa in the presence of phospholipids (chromogenic FXa assay) [8]: both tTF and the tTF fusion polypeptides are functionally active under these conditions

B2: tTF-GRGDSP fusion polypeptide with N-terminal affinity tag (other)
chain: T6 chain
notes: It was biotinylated for the FACS assay; also called tTF-RGD
fluorescence intensity, fold over tTF [9]: 8 fold
